Reference: the supplement of paper PMC12042874
± gives the uncertainty stated by the source.

Test: amyloid nucleation score (Sup35N fusion, yeast selection) (log enrichment); library NNK3; higher = more nucleation; inactive = no reads after selection
In short: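 Peptides of 20 random codons fused to Sup35N were expressed in psi-negative yeast, induced 24 hours with 100 μM copper sulfate, then grown 7 days at 30°C on medium lacking adenine and uracil. Input and output plasmid inserts were Illumina-sequenced. Nucleation score is the DiMSum log enrichment of output over input reads, centred on the mode score of non-aggregating sequences, excluding sequences with under 100 input reads. Random libraries had three technical output replicates.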

Substance	amyloid nucleation score
LRGAVVVSEKTRVTTQCIAR	inactive
LRIKMGIYAHDLCAVIMYTL	0.515 ± 0.35
LRMFSRVGRNRCYNITSFTC	inactive
LRQGWILVA	inactive
LRQQRHACAIMEVSG	inactive
LRQVNQWVDVKASDPNGTAL	inactive
LRRFWDRIPCFCLFHRFSFY	inactive
LRRYALGLSYCLEVK	inactive
LRVCTELRMVLDISYNVGNF	0.68 ± 0.18
LRVRFTISWL	-0.471 ± 0.41
LRWCGSVFLFGGCRGTVVSW	inactive
LRWFAFSKSNIALGL	inactive
LSAATYPL	inactive
LSAMLDTDAYRGLW	inactive
LSCCSSGGGSTPVIAPTYYE	inactive
LSCVRRSSLDSC	inactive
LSCWNIRGWLRWS	inactive
LSDMNVNKRMCCMVRDSNMR	inactive
LSESYDRQRFKSTF	0.694 ± 0.21
LSEWI	inactive
LSFTEY	inactive
LSFYISPS	0.748 ± 0.1
LSGDLVCRKVFTRRCTSKWL	inactive

Substance	amyloid nucleation score
LSGFDFAL	inactive
LSGVSWKLCVYCFTVRGAAL	0.863 ± 0.22
LSHPTPQSCRHFVFNLKLSA	inactive
LSLDLSPSNLNPRWFDTPFH	inactive
LSLFSRSASFSSSLHMAMYH	inactive
LSLNLRYHQPVNWNSRDTCL	1.31 ± 0.12
LSLNLSLNMKVKLYVYWGYR	inactive
LSLSM	inactive
LSLSRRGYQLLLEASGRCYV	inactive
LSNTRLRNMFSRDRGASLEG	inactive
LSPARQLTLLGDKNPANNIL	inactive
LSPYRYSCYPYPTYSRYP	0.44 ± 0.24
LSRMTRESKPQEISAQARLD	1.14 ± 0.13
LSSCKLSYSKQLSRTVNQL	inactive
LSSDNCTFPFHRLGGYKQSY	inactive
LSSFLLFLAELCWVLKQRMC	inactive
LSSGG	0.088 ± 0.4
LSSWTNLLIWSLNLCPVMFV	inactive
LSTCFTGAFRVSNREKSNVS	0.059 ± 0.43
LSTSL	inactive
LSTYPDI	inactive
LSVFDMGIRKM	inactive
LSVLWYSWWGFNTG	inactive

Substance	amyloid nucleation score
LSWIWNLANSVKDNMGGMRM	inactive
LSYESCFGSHVGMRAEGCSR	-0.485 ± 1.2
LSYFSLFYADGRHFRCLLDN	inactive
LSYLC	inactive
LSYVRCVRWWY	inactive
LTLISGIAFLCLLLDNHNTV	inactive
LTPSECMENYRGFSDMRRCP	inactive
LTYHWNVVQLTLGNCFSGWG	2.55 ± 0.059
LVASSRW	inactive
LVDAVHLCSNVNYTFCTNAG	1.3 ± 0.074
LVESDLYVCTTVRGQVSMKG	inactive
LVGMDTGIVNDSIDGPGYWV	inactive
LVHLEVGQGSSVVEHLRCVL	inactive
LVIGVYWDRSPLVSSPFPLN	inactive
LVLDINTFTDIGSRKRWSHG	inactive
LVLTSPFRYSIV	inactive
LVLVSTFMHVGDVCYHMYY	2.99 ± 0.057
LVNEKNIRVEVCIAYACQDS	-0.053 ± 0.33
LVNMHLSLSYGDLSRRQFVN	inactive
LVNTCKNSFLVVLHF	2.09 ± 0.065
LVPFLVDIHVGWDISLKVVR	inactive
LVQIPYTDDVRLKGMINP	inactive
LVRLGMQRCRPLT	inactive

Substance	amyloid nucleation score
LVSVVYLEGTGGDYDFFIAT	2.01 ± 0.079
LVTDGMRRSEICLMVYSN	inactive
LVTETLFYCH	inactive
LVTGNVYVF	inactive
LVVCGVRWSMFIGIS	inactive
LVWVKLAANAFVV	1.4 ± 0.074
LVYCFAYRVVHSNCHLESC	inactive
LVYLQDLQLSSMLDFHSCM	inactive
LWAIMFRYSDIAKLTGWRVV	-0.069 ± 0.82
LWDRHNCWGDEASFPSRPTY	inactive
LWDWVYFAYDRVYLVLCSSC	inactive
LWFCLFPPWITSCPFRLCRA	inactive
LWGAYLLNCGNMRYCMYISG	0.803 ± 0.2
LWIPLWNVRKVYIIGQCLT	inactive
LWKLSSNSYWFVSCNGLKYS	inactive
LWKRCRNNEAFVLMVGRRQA	inactive
LWLIPC	inactive
LWQDMRLLSGLL	inactive
LWSLHMESDWGVRIHSRSLI	inactive
LWTVNRECM	inactive
LWYVDTGAIILG	inactive
LYAWPHRTIVVVWLRILLFR	inactive
LYCECYSSLLCYGRLPAKTR	inactive

Substance	amyloid nucleation score
LYDDVSTVWNKKTEVGQLLN	inactive
LYEDYISSSMSMLLRLLSSY	inactive
LYFACPTLYLFRRRVNVTHP	inactive
LYHRAIGRSRQRENPSQKGG	-0.048 ± 0.39
LYICTIVYYGQSNRYMFAGQ	inactive
LYLFTPVWDFNCLPFGLAYK	inactive
LYLPGKIY	inactive
LYMGSRPFSVIVVRITVGSQ	inactive
LYMVINYMKCVARHGTQNDR	inactive
LYPFSGESQA	inactive
LYRRVHVMGPVSHLDKLERC	inactive
LYRWHNLFGYTNVSSIQKYG	inactive
LYSAAVVNGGLCDRL	inactive
LYSAGLNEFLL	inactive
LYSSNQLFDGGMSFWNDNII	inactive
LYSVSAAMDTIKPLFPRGNA	inactive
LYVFYCVTHLHSIGPGQCLR	inactive
LYVSCWFDLRPSTFYLGSEF	2.48 ± 0.054
LYYRGLRQRLTPKLGRFRLC	inactive
MAFYQHDILTMFLYRFRDAR	inactive
MAGCAMRVRSYMGMKSHSEC	-0.353 ± 0.74
MALLPGVAGTSYK	-0.435 ± 1.3
MAPVGL	inactive

Substance	amyloid nucleation score
MASVSREAVQYNAWESMAIY	inactive
MCFNYCGVWASYLNRSVSFI	inactive
MCLVFKTEIRGLKAFCMCSF	inactive
MCMSVCFSK	inactive
MCRSNFAWSPSHK	inactive
MCSGAAFMRRVC	inactive
MCVRPLPSRLGTVGLWN	inactive
MCWLVWLSPRSNDCVDHRFD	-0.163 ± 0.46
MCYFEYNDVNWRVLLLYLCK	inactive
MDGGASSREVAWWSLSNRGA	inactive
MDLITFGKKMREAQARILLV	inactive
MDRYNEPLSNWTKSSEIR	inactive
MDSPTGLALDG	inactive
MEGDLSVADSYGDQ	inactive
MFAADDLIPTKIVGSCF	inactive
MFFVRNFCQYVSRRC	1.83 ± 0.088
MFGVVTGLTLGSSTFHA	inactive
MFIMVRRRLT	inactive
MFITRVLR	inactive
MFMYCPCSLEDICLRFPTPV	inactive
MFRLVSGTEGLRLREVWC	-0.469 ± 1.1
MFRTRTNNHDSVGRYLVTMN	inactive
MFTTSCWILKER	0.248 ± 0.23

Substance	amyloid nucleation score
MFVYR	inactive
MFYMIFIVYQSWLKNASYLC	inactive
MGAANSWETDKF	inactive
MGADGSLRALKRARS	inactive
MGDSVFRCLCNTYALLFPPV	inactive
MGFASSLSWSL	inactive
MGMVFHME	inactive
MGSYM	inactive
MGVYAINVRYSAERVMLVAP	inactive
MGYLMRALGHCSY	inactive
MHFRWQTFYSDN	inactive
MHNHMYISKEMLYNERTLSI	inactive
MIACNSRRCI	inactive
MICAGVMIGYALFYFQIWSC	inactive
MIFSRAISDGSFLTVFV	-0.32 ± 0.8
MIGFYLILVGSHIRMYTGS	inactive
MIIPFLLLTMLITKSWLLIW	inactive
MIIYVKLPYRCLFFERHSDT	inactive
MIKPIIHFSGG	inactive
MILCCNRRLFGRRSLANLCW	inactive
MILFKIEELHCQHVSHCG	inactive
